Source: PMC7144943

How the values were obtained:
[1] = system: Blanks wild-type (cDNA variant); assay: fluorescence anisotropy; settings: n=3; assay buffer not given (as in ref 39); protein final buffer 100 mM KAc pH 7.4, 10 mM HEPES pH 7.4, 2 mM MgAc, 5 mM DTT (protein diluted 1:3 into it, then …)
Blanks dsRBD2 mutant = assay: fluorescence anisotropy; settings: n=3; assay buffer not given (as in ref 39); protein final buffer 100 mM KAc pH 7.4, 10 mM HEPES pH 7.4, 2 mM MgAc, 5 mM DTT (protein diluted 1:3 into it, then …)

For 23 nt ds siRNA (21 bp), the Kd [1] was 177 nM and the Kd (Blanks dsRBD2 mutant) was 666 nM.
